Experimental data as given in article PMC5389554 (Nucleic Acids Research, 2017).

Key:
non-reducing SDS-PAGE = target: the molecule itself; assay: non-reducing SDS-PAGE
[1] = target: the molecule itself; assay: non-reducing SDS-PAGE with immunoblot
cross-linking = target: the molecule itself; assay: cross-linking

B1: GST-CNBP (recombinant cellular nucleic acid-binding protein with GST tag) (natural protein, mouse, UniProt P53996 1-178, looked up)
chain: MSSNECFKCGRSGHWARECPTGGGRGRGMRSRGRGGFTSDRGFQFVSSSLPDICYRCGESGHLAKDCDLQEDEACYNCGRGGHIAKDCKEPKREREQCCYNCGKPGHLARDCDHADEQKCYSCGEFGHIQKDCTKVKCYRCGETGHVAINCSKTSEVNCYRCGESGHLARECTIEATA
stoichiometry N (non-reducing SDS-PAGE): 2

B2: CNBP-HA (wild type) (natural protein, mouse, UniProt P53996 1-178, looked up)
chain: B1 chain
stoichiometry N [1]: 2

B3: endogenous CNBP (cellular nucleic acid-binding protein) (natural protein, mouse (endogenous in RAW 264.7), UniProt P53996 1-178, looked up)
chain: B1 chain
stoichiometry N (cross-linking): 2
